{
  "source": "paper PMC12597760",
  "key": {"TGF-β1 [1]": {"target": "TGF-β1"}, "TGF-β1 [2]": {"target": "TGF-β1", "remark": "listed apart in the source"}, "Synagis-T22d35": {"target": "Synagis-T22d35 (UniProt P37173)", "experiment": "SPR"}, "Synagis": {"target": "Synagis", "sequence (heavy, as listed by the source, chain 1 of 2)": "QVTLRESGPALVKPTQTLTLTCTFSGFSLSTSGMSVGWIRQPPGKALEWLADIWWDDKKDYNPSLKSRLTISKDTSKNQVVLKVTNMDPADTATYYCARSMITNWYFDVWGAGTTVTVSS", "sequence (light, as listed by the source, chain 2 of 2)": "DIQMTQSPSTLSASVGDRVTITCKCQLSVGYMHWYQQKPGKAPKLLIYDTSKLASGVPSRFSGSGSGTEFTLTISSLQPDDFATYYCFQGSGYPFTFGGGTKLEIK", "experiment": "SPR"}, "TGF-β2 [3]": {"target": "TGF-β2"}, "TGF-β1 [4]": {"target": "TGF-β1", "remark": "listed apart in the source"}, "TGF-β2 [5]": {"target": "TGF-β2", "remark": "listed apart in the source"}},
  "note": "Like-named read-outs stand apart in the source and are kept apart here.",
  "data": [
    {"substance": "T22d35 (single-chain fusion of two TGF-β type II receptor ectodomains) (from UniProt P37173 23-166; P37173 23-166) (domain or fragment)", "values": [
      {"measurement": "IC50 (nM) of neutralization of TGF-β1 (10 pM), A549 IL-11 release assay", "setting": "TGF-β1 [1]", "result": 3.25, "unit": "nM"},
      {"measurement": "IC50 of neutralization of TGF-β1, A549 IL-11 release assay (Figure 2B)", "setting": "TGF-β1 [2]", "result": 0.5, "unit": "nM"}
    ]},
    {"substance": "RSV-F (from UniProt P03420 26-574) (natural protein)", "values": [
      {"measurement": "Kd", "setting": "Synagis-T22d35", "result": 4.1, "unit": "nM"},
      {"measurement": "koff", "setting": "Synagis-T22d35", "result": 0.00142, "unit": "s⁻¹"},
      {"measurement": "kon", "setting": "Synagis-T22d35", "result": 35500, "unit": "M⁻¹ s⁻¹"},
      {"measurement": "Kd", "setting": "Synagis", "result": 6.6, "unit": "nM"},
      {"measurement": "koff", "setting": "Synagis", "result": 0.00168, "unit": "s⁻¹"},
      {"measurement": "kon", "setting": "Synagis", "result": 25700, "unit": "M⁻¹ s⁻¹"}
    ]},
    {"substance": "Avastin-T22d35 (from UniProt P37173 23-166; P37173 23-166) (antibody)", "values": [
      {"measurement": "IC50 (nM) of neutralization of TGF-β3 (10 pM), A549 IL-11 release assay", "setting": "TGF-β3", "result": 0.00276, "unit": "nM"},
      {"measurement": "IC50 (nM) of neutralization of TGF-β2 (10 pM), A549 IL-11 release assay", "setting": "TGF-β2 [3]", "result": 2.99, "unit": "nM"}
    ]},
    {"substance": "Cetuximab-T22d35 (from UniProt P37173 23-166; P37173 23-166) (antibody)", "values": [
      {"measurement": "IC50 (nM) of neutralization of TGF-β3 (10 pM), A549 IL-11 release assay", "setting": "TGF-β3", "result": 0.00428, "unit": "nM"},
      {"measurement": "IC50 (nM) of neutralization of TGF-β2 (10 pM), A549 IL-11 release assay", "setting": "TGF-β2 [3]", "result": 3.33, "unit": "nM"}
    ]},
    {"substance": "FC5VHH-Fc-T2m (from UniProt P37173 23-166) (Fc fusion)", "values": [
      {"measurement": "IC50 (nM) of neutralization of TGF-β1 (10 pM), A549 IL-11 release assay", "setting": "TGF-β1 [4]", "result": 0.00569, "unit": "nM"}
    ]},
    {"substance": "Cetuximab-T2m (from UniProt P37173 23-166) (antibody)", "values": [
      {"measurement": "IC50 (nM) of neutralization of TGF-β3 (10 pM), A549 IL-11 release assay", "setting": "TGF-β3", "result": 0.0332, "unit": "nM"}
    ]},
    {"substance": "T22d35-hIgG2Fc(CC)ΔK (from UniProt P37173 23-166; P37173 23-166) (Fc fusion)", "values": [
      {"measurement": "IC50 (nM) of neutralization of TGF-β2 (10 pM), A549 IL-11 release assay", "setting": "TGF-β2 [5]", "result": 4.76, "unit": "nM"},
      {"measurement": "IC50 (nM) of neutralization of TGF-β1 (10 pM), A549 IL-11 release assay", "setting": "TGF-β1 [1]", "result": 0.00331, "unit": "nM"}
    ]},
    {"substance": "FC5VHH-Fc-T22d35 (from UniProt P37173 23-166; P37173 23-166) (Fc fusion)", "values": [
      {"measurement": "IC50 (nM) of neutralization of TGF-β1 (10 pM), A549 IL-11 release assay", "setting": "TGF-β1 [4]", "result": 0.00235, "unit": "nM"}
    ]},
    {"substance": "hIgG2Fc(CC)ΔK-T22d35 (from UniProt P37173 23-166; P37173 23-166) (Fc fusion)", "values": [
      {"measurement": "IC50 (nM) of neutralization of TGF-β2 (10 pM), A549 IL-11 release assay", "setting": "TGF-β2 [5]", "result": 1.41, "unit": "nM"}
    ]},
    {"substance": "Herceptin-T22d35 (from UniProt P37173 23-166; P37173 23-166) (antibody)", "values": [
      {"measurement": "IC50 (nM) of neutralization of TGF-β3 (10 pM), A549 IL-11 release assay", "setting": "TGF-β3", "result": 0.00249, "unit": "nM"},
      {"measurement": "IC50 (nM) of neutralization of TGF-β2 (10 pM), A549 IL-11 release assay", "setting": "TGF-β2 [3]", "result": 4.35, "unit": "nM"}
    ]}
  ]
}
